The values below come from patent publication US20120076780A1.

In assay [1] the target is ErbB-1 (EGFR) on human cancer cells (SCC-1, SCC-9, C1-1 clone 3, C1-1 clone 7) (human) (UniProt P00533). Kind of assay: cell-based or functional assay.
Assay [2] has the same target. In words: cell-based or functional assay. This is another data set of the same source.
For assay [3] the target is unchanged. In words: cell-based or functional assay. This is another data set of the same source.
Assay [4] concerns the target ErbB2 on human tumor cells (SKBR3, A431, T47D, MCF7, MDA-MB231) (human) (UniProt P04626). Kind of assay: cell-based or functional assay.
Assay [5] shares this target. Kind of assay: whole-cell ELISA on SKBR3 cells, anti-PE detection, after 24 h at 37 C in 100% human serum.
Assay [6] deals with MUC1, secreted isoform from conditioned medium of MUC1-transfected DA3 cells (UniProt P15941). Kind of assay: ELISA on coated MUC1 conditioned medium; apparent affinity from the half-maximal binding signal. On the technique in general: ELISA stands for enzyme-linked immunosorbent assay.
The target in assay [7] is MUC1 on cells (T47D, MCF7, DA3-MUC1) (human) (UniProt P15941). In words: whole-cell ELISA on T47D cells; apparent affinity from the half-maximal binding signal.

pKd: −log10 of the molar value. Where two headings read alike, the source gives them in different places.

On to “cetuximab-ZZ-PE38 complex (non-cross linked)”, for which, in assay [1], the IC50, cell survival, XTT assay, SCC-1 cells was determined as 0.47 ng/mL and the percent of SCC-1 cells killed at 0.001 µg/ml of immunotoxin complex came out at 80%. Further, the IC50, cell survival, XTT assay, SCC-1 cells in assay [2] was determined as 0.31 ng/mL. Besides, in assay [3], the IC50, cell survival, XTT assay, C1-1 prostate cancer cells clone 3 came out at 12 ng/mL; the IC50, cell survival, XTT assay, C1-1 prostate cancer cells clone 7 is 38 ng/mL; the IC50, cell survival, XTT assay, SCC-1 cells is 0.261 ng/mL; the IC50, cell survival, XTT assay, SCC-9 cells worked out at 0.073 ng/mL.
Consider “chFRP5-ZZ-PE38 immunoconjugate (from UniProt P01857 1-330)”, for which, in assay [4], the IC50 (ng/ml), cell killing, MTT assay 48 h, MCF7 cells was 600 ng/mL; the IC50 (ng/ml), cell killing, MTT assay 48 h, MDA-MB231 cells was above 10000 ng/mL; the IC50 (ng/ml), cell killing, MTT assay 48 h, T47D cells turned out to be 1000 ng/mL; the IC50 (pM), cell killing, MTT assay, A431 cells turned out to be 10 pM. Moreover, in assay [4], the IC50 (pM), cell killing, MTT assay, MCF7 cells stood at 300 pM. The decrease of binding activity in assay [5] amounted to 17%.
As to “chimeric H23 IgG1 (from UniProt P01857 1-330) (antibody)”, the negative-log Kd (pKd) in assay [6] and in assay [7] was 9.52 in each case.
“cross-linked cetuximab-ZZ-PE38 immunotoxin complex” showed an IC50, cell survival, XTT assay, SCC-1 cells in assay [2] of 7.54 ng/mL.
Consider murine H23 mAb (antibody), for which the pKd – broadly, −log10 of the Kd, conventionally taken in molar units – in assay [6] is 9.70; in assay [7], 9.60.
Consider scFv(FRP5)-ETA, for which the IC50 (pM), cell killing, MTT assay, A431 cells in assay [4] is 52 pM.
